Results as given in article PMC6366424, “Development of a novel, high-affinity ssDNA trypsin inhibitor”.

Tests used:
Details in all cases: protein: commercial
bovine trypsin [1] = target: T1, bovine trypsin (Bos taurus (bovine), UniProt P00760 24-246); assay: bead pull-down; ELISA/pull-down: PBS pH 7.4, 5 mM MgCl2, 10 mM KCl, 0.01% Tween20, RT; SPR and inhibition (TAAB): 0.1 M Tris pH 7.5, 150 mM NaCl, 5 mM CaCl2, 10 mM KCl, 5 mM MgCl2, 0.02% Tween 20; inhibition at 37 C (full-length aptamer screen in selection buffer at RT)
T1 sequence (P00760 24-246): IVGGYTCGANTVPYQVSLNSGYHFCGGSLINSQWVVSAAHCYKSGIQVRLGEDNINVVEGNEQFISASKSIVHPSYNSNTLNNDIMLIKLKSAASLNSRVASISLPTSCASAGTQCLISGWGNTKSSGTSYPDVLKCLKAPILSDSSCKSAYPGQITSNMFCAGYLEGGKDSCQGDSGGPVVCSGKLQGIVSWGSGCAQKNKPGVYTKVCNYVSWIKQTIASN

bovine trypsin [2] = target: T1, bovine trypsin; assay: enzyme inhibition (mixed mode); BAPNA, TAAB, 37 C; ELISA/pull-down: PBS pH 7.4, 5 mM MgCl2, 10 mM KCl, 0.01% Tween20, RT; SPR and inhibition (TAAB): 0.1 M Tris pH 7.5, 150 mM NaCl, 5 mM CaCl2, 10 mM KCl, 5 mM MgCl2, 0.02% Tween 20; inhibition at 37 C (full-length aptamer screen in selection buffer at RT)
bovine trypsin [3] = target: T1, bovine trypsin; assay: SPR; kon 1.03e6 M-1s-1, koff 3.15e-3 s-1; TAAB; ELISA/pull-down: PBS pH 7.4, 5 mM MgCl2, 10 mM KCl, 0.01% Tween20, RT; SPR and inhibition (TAAB): 0.1 M Tris pH 7.5, 150 mM NaCl, 5 mM CaCl2, 10 mM KCl, 5 mM MgCl2, 0.02% Tween 20; inhibition at 37 C (full-length aptamer screen in selection buffer at RT)

Binder	binding result (bovine trypsin [1])	Ki (bovine trypsin [2]) [nM]	Kd (bovine trypsin [3]) [nM]
T22 (ssDNA) DNA: CATGCTTCCCCAGGGAGATGGGTGTGAGGTTAGGAAATCTGTGTTGAACACTGCTTTCAGGGGGCTTGGGAGGAACATGCGTCGCAAAC	binds		
T21 (ssDNA) DNA: CATGCTTCCCCAGGGAGATGGGTGTGGGGTTAGGTCACTTTATGGTTGGTTCCATTGTGTCAGGGAGCCGGGAGGAACATGCGTCGCAAAC	binds		
T24 (ssDNA) DNA: CATGCTTCCCCAGGGAGATGGGTGTGAGGTTAGTTTGCGGGAACTAGAATTCCTGGCAAAGGGGGGCCTGGAGGAACATGCGTCGCAAAC		176 ± 16	3.06
T59 (ssDNA) DNA: CATGCTTCCCCAGGGAGATGGGTGTGAGGTTAGTTTGCGGTCCTGGCAAAGGGGGGCCTGGAGGAACATG		475 ± 48	
